The DeepSol protein solubility set

Experiment: soluble on expression in E. coli; label from the status in PepcDB or PDB records

Sequence | soluble on expression in E. coli
MGSDKIHHHHHHMRGIVLFPIINCSGAMVEITSTEMTPPVNDSHEFIPMRGIRNRHLQTMLPRLIRRKVKFNAHWQRLELPDGDFVDLAWSEDPQQAKYKPRLVVFHGLEGSLNSPYAHGLIEAAQKRGWLGVVMHFRGCSGEPNRLNRIYHSGETEDGAWFLRWLQREFGAVPTAAVGYSLGGNMLACLLAKEGRDIPIEAAVIVSAPFVLEACSYHMDKGFSRVYQRYLLNLLKANASRKLAAYPGSLPVNLAQLKSMRRIREFDDLITAKIHGFADAIDYYRQCSAMPLLNQIAKPTLIIHAKDDPFMDHHVIPKAEDLPPQVEYQLTEHGGHVGFIGGTPLRPEMWLERRIPDWLTTYLEASS | not soluble
PRERVSRVHASSGTTGKPTVVGYTARDLDNWANLVARSIRAAGGKPGDIVHVSYGYGLFTGGLGAHYGAERLGCTVVPMSGGQTEKQVQLINDFRPDIIMVTPSYYCNILEEQRRQGMDPRQSSLRIGIFGAEPWTGQMRADIEAEGGIDAVDIYGLSEVMGPGVASECVETKDGPVV | not soluble
MKIALIGITGRVGSRLADELLRRGHHVTGIARDPASVRPQPNLTARQGDAAVPEDLAPILAGHDAVISAARFVSLDAKPLLAAIRQAGVPRLLVVGGAGSLQVAPGVALIDTPEFPDAYKPEARAGVVFLDTLRREQEVEWTFLSPSALFEPGERTGEFRLGADLLLADDEGKSWISMEDYAIALVDELETPRHARRRFTVGYLEHHHHHH | not soluble
MKSVQDALYNWLTIHIVAKARPHDAAARDTASFFRAILENDFGVTAVDAVKDETNGQYIVEYVRGGETRAACFPLELAEAMWRQIEAEPEKYG | not soluble
MSLQIDEVSKKLNISKSMIRYYEEKGLINISRNQNNYREFNQTVYTTLKLIKDLKRLNLSLEEIKYIVNLFNKPTSKECNIQSTKYLDRIIKDYKRSINEQINILNRLEQVKELSQDMKFEENKTEILNMLAGVKEYDEGHHHHHH | not soluble
MSLTAELQALDAAHHLHPFSANNALGEEGTRVITRARGVWLNDSEGEEILDAMAGLWCVNIGYGRDELAEVAARQMRELPYYNTFFKTTHVPAIALAQKLAELAPGDLNHVFFAGGGSEANDTNIRMVRTYWQNKGQPEKTVIISRKNAYHGSTVASSALGGMAGMHAQSGLIPDVHHINQPNWWAEGGDMDPEEFGLARARELEEAILELGENRVAAFIAEPVQGAGGVIVAPDSYWPEIQRICDKYDILLIADEVICGFGRTGNWFGTQTMGIRPHIMTIAKGLSSGYAPIGGSIVCDEVAHVIGKDEFNHGYTYSGHPVAAAVALENLRILEEENILDHVRNVAAPYLKEKWEALTDHPLVGEAKIVGMMASIALTPNKASRAKFASEPGTIGYICRERCFANNLIMRHVGDRMIISPPLVITPAEIDEMFVRIRKSLDEAQAEIEKQGLMKSEGHHHHHH | not soluble
MIMANILFIDNFDSFTYNLVDQFRSLGHVVTIYRNNLSADAIEQALLQLDNPVVVLSPGPGAPSETGCMPELLQRLKGKVPMIGICLGHQAIVEAYGGVVAGAGEIIHGKVSMMEHQNHAIYRGLPSPLAIARYHSLVATQVPSALTVTAEVNGLVMSVVNEADKVCGFQFHPESIMTTHGATLLANAIDWALSSTPAQTQFA | not soluble
MGSSHHHHHHDYDIPTTENLYFQGHMKIGIMSDTHDHLPNIRKAIEIFNDENVETVIHCGDFVSLFVIKEFENLNANIIATYGNNDGERCKLKEWLKDINEENIIDDFISVEIDDLKFFITHGHHQSVLEMAIKSGLYDVVIYGHTHERVFEEVDDVLVINPGECCGYLTGIPTIGILDTEKKEYREIVL | soluble
MSLIKLLALDMDGTLLNEAKEIPQAHITAIHKAIEKGVKLVLCTGRPLFGVLPYYKKLELDLQNEYIIVNNGCSTHQTSDWGLVDWQELSPADIEYLYDLAEKSDVQLTLFDESHYFVLGGKPNQVIENDAKLVFSDLTEISLEEATSGKFRMFQGMFLGTKEQTDDFEQRFAEELCQRFSGVRSQPVIYEAMPLGTTKATALSRLAEILKIDSSEIMAMGDANNDIEMLQFAGLGIAMGNASDYVKSLADAVTSSNEEDGVARAIEKYILEGHHHHHH | soluble
MAHHHHHHMTTVLNRRFDVLCHSGTCPSYLIDVLSLLVAHANDTELFKTELRKGDGGEFGAAATGAGSAHATSSTGPASRTDRAVGEARERQAADRRTQLMYKQVEDPEVLDDALRASHETVLIAAERSLQTYTEDLKHINDIAMATSAKQLRAMRVETQQQMEAFRDRVCGSVVAQTKEELEVMRSELAASVRADVSDMVRQLHQVSFSTQQQLQQLTSSYTDFVAQAHDALTLAPLADAYEAVKTVEYMQEQLKCIEAAATTRSDVETLEERLKDLESIVTTLGSVAKTPDVGAAAAAREGFSVNVPPPLSLSQQKPVLSNRSASHRSQTPKCTSPLPLHLHVSRSASAKGRPSSPPPASPGPPAQRTLAERLGVAVEAAEDGVVLAEVLPGSAAAAHRLGVGHIISHVGRTAVKTPAAFEEALRGIEGQAVKITAYDPFNGRVRVLTAQPL | not soluble
MGSDKIHHHHHHMSNKQHSTTITLPRGTLDLTYQTNAASGNNDLKESSRYQLEDLLDFAQRINPKRAFLFVSKVLGRHIPVAPSTMRDAFTDLANLVPDDLPEPILVIGMAETAVGLSAGVHQALQTRYPQALLLNSTRHAQHDNDNTNNLLTTFSEDHSHASQHLIYQSADKVTQAQLLASKTLIMVDDEASTGNTCVNVVTALRNAGLMQLQQVHLTTLVDWSLNQNQTDAKADDTIASRLPNIDFYRHHLLSGAWKWTDAPNPEPIIMPSVDTTEAGSQALAHTGHWGRFPTLDSTDGFANYLASFQTTFAIFDGQTAFDNAQLPQKILVLGSNEFVWLPFLLAEWLEQNADTVIDNQVIKFSALTRSPIALGGGISTMLSFHDNYGLGMTNFAYNVDPSNWDLIVLCVETSADGVDAMWQDLDNVLIVSPK | not soluble
MASESAVKDSQPSLDLASATSGDKIVTAQENGKAPDGQTVAGEVMGPQRPRSNSGRELTDEEILASVMIKNLDTGEEIPLSLAEEKLPTGINPLTLHIMRRTKEYVSNDAAQSDDEEKLQSQPTDTDGGRLKQKTTQLKKFLGKSVKRAKHLAEEYGERAINKVKSVRDEVFHTDQDDPSSSDDEGMPYTRPVKFKAAHGFKGPYDFDQIKVVQDLSGEHMGAVWTMKFSHCGRLLASAGQDNVVRIWALKNAFDYFNNMRMKYNTEGRVSPSPSQESLSSSKSDTDTGVCSGTDEDPDDKNAPFRQRPFCKYKGHTADLLDLSWSKNYFLLSSSMDKTVRLWHISRRECLCCFQHIDFVTAIAFHPRDDRYFLSGSLDGKLRLWNIPDKKVALWNEVDGQTKLITAANFCQNGKYAVIGTYDGRCIFYDTEHLKYHTQIHVRSTRGRNKVGRKITGIEPLPGENKILVTSNDSRIRLYDLRDLSLSMKYKGYVNSSSQIKASFSHDFTYLVSGSEDKYVYIWSTYHDLSKFTSVRRDRNDFWEGIKAHNAVVTSAIFAPNPSLMLSLDVQSEKSEGNEKSEDAEVLDATPSGIMKTDNTEVLLSADFTGAIKVFVNKRKNVS | not soluble
MSLENSQELTPWQRLTIARMLERPTSLEYIDLIFDSFMEFHGDRAFGDDAAIVGGVAEFNGMPVTVIGQQKGRNTNENIKRNFGMPSPEGYRKALRLMKQAEKFNRPLICFVDTSGAYCGVEAEQRGQGEAIAKNLISMANLKIPVISVVIGEGGSGGALAMAVADEVWMLENSVYSLLSPEGFASILWKDSSRAKEAAEVMKITADDLKGYGIIDKVIKEPDGGAQNDITMVANALRENLKKAIEGLSSTGINELLDNRYNKFRQIGKFIENEDNEGHHHHHH | soluble
MVDESKLQCYHKGCGLLFDPKENDNEACTYHPGGPYFHDAYKIWTCCDKKSTDFGTWMNYKGCTRGKHSNEKPVDIVKVAAVKEIRPEKEEDVIVWKGLNKSGKLDSKDATKRIEQNLNVEVTPGATAAIEKKLKEISEAAQSADIQIGAPCRNNGCSTEFDGSKNKENCQHHPGAAIFHEGMKYWSCCNKKTSNFGAFLEQVGCTSGEHKFRNNEIVSKFREDWFSSNGFVTINVYCRGALPETANIVSDGHTVRVSMKHGFGNASVDLDYDLWDEVIPEESRVVIGERKVEISLKQKHGTGWPRLKFDPELDAKNDEEA | not soluble
MGSDKIHHHHHHMDSMQTTETFQVLKIGADAYIKRRNQRLLSNHRKDLRKFTRAEAFTYLDIDAKTLDKYVATADFDPRRHEDSQWLINIEEMYQLRDLLPENLRKASKFKRSDNQKMQVIVIQNQKGGVGKTVSAATIASGLATEFHQEYRVGLIDMDGQATLSMYYAPEADLEGCLSVGDLMMNNFDLDEGETLEQVVSNAFLPTTIPNLRILPASQSDRAIEGWFHEQVFGQKLTSPYSLLNTIINAVQDEFDIIIIDTPPSLGYATYNAYFAATSVVFPLSITENDIDATCSYFSYIPQVWALLANANHRGYDFMKILITNHRDSATTTDLMNTLYDHFAPYMYSNEFKHSEAIRQSSSLLSTVFDMSKSEYPKSKATFQSAQQNCYEVTSQVLRDIVNVWREQEQA | not soluble
MGHHHHHHSHIHRIDSTEVIYQPRRKRAKLIGKYLMGDLLGEGSYGKVKEVLDSETLCRRAVKILKKKKLRRIPNGEANVKKEIQLLRRLRHKNVIQLVDVLYNEEKQKMYMVMEYCVCGMQEMLDSVPEKRFPVCQAHGYFCQLIDGLEYLHSQGIVHK | soluble
MAHHHHHHMDMLHQIYALEYKRNTQRSDRIRDKDKTKIRILFIGGNEFSLLCFKVIRLIIKYVRNDIVLDHVITKSPRKKGRHLKLKKSHIEEEAEKEKIKIFYYDKIRNDTYMLKNETFDLCISASFGEIFNASFFKNIASNVYTLHPSLLPLYRGASPIQRSLLNNESLFGYSIFLTNLRIDAGPVLIRSPHTFGDAFNFNDIITILFTLGSLHLMRHIFFLANYKLGSTNGELQRTVESPNPSTISTHNNNKHLKIRHLLYDEENITPHNVKKKQFMLHTDIGQDKMNYAWLRNYLMLSSTHNNNTYAPKIKSEERYVCFFCSTALHIHNKVRGFINWPKVECTLYLVHKGGLKAMEVKLIKTSQESGDHISHQHLHQFKHLDALQSHKCFDGIPRKLAIFNRGAINILCKDNSLLKIYKLQRKNKKIMDASSFFNSINGVDLLY | not soluble
MAHHHHHHMGELFSIKNLFICSNERSVEELRTAMEGLLKKERAEGAGGGEKEAKEETHPGGKKYEMIKDYLDANKNNVLHFAIYGNNMNNVKFIIENTNLINSINSEEQNGLIISVLNRNTQISKYLIEQNIDYNQKDKHKANALLYSLITQNYEIFNLLMEKKNIDINVNSFEKGNLLSVSIFERNIHVLKKLFNKFICPFVEGSVYPHPLLYITYSSDNELLFLYLTYCMYYCTKDDALYKINTANFDHSREEIYVDLDHRQVICSIWDNSTYDLSAFKDVLNMTDEDGTPLCSTCVNNGNSLGKNIFDYFSAPS | not soluble
QVKLLESGPELVKPGASVKMSCKASGYTFTSYVMHWVKQKPGQGLEWIGYINPYNDGTKYNEKFKGKATLTSDKSSSTAYMELSSLTSEDSAVYYCVRGGYRPYYAMDYWGQGTSVTVSSAKTTPPSVYPLAPGSAAQTNSMVTLGCLVKGYFPEPVTVTWNSGSLSSGVHTFPAVLQSDLYTLSSSVTVPSSTWPSETVTCNVAHPASSTKVDKKIVPRDCTSHHHHHH | soluble
MGSDKIHHHHHHMEPAELLKKIHQLPRLPKAVSELLEAVNNDQISIKDIAAKVSQDPLMSARVLRLANSSYFGANRKVASIDAAVVRLGMQTLRNLVIASAVVGAVPKAEGVDLGGFWGATFEVALYSQELAKHTHIPPEEAFTCGILHNIGDLFIATAAPDAAKAIDKAVMAGADKQETELKILDFDAATIGALLAQSWRFTDKLAAGIANQYQPKEAELYSDLAGLMYMAKALFSGWDEIEDDAITGWLSVQAMNAGLEMDMSDLAADLLKVKGSGLEMGQLLA | not soluble
